This is an account of results in the DeepSol protein solubility set.

This series is described as follows: soluble on expression in E. coli; label from the status in PepcDB or PDB records.
“MGSSHHHHHHSSGLVPRGSHMSQDVPGNLLDEIRILRSPKGYLYAGLPKFRALFGRDSIISSIQLIDLFPDIAQNTVIYLKDLQGRKLDYSIGEYPGKILHEYYDDEKIFLDRKRSIPWLNSRINYFSVDSTPLFILLIKNLFLRNLIDIEQFKDSIMMAMQFLIAYSSSDGLITYDKALLGAGLMSQSWRDGVGDIMDRLKSPVATVGVQGYFYESADFVLNLFPDSLIEESLPDLKDFYSKMREILENKFWLEETGYYGLAVDGDGVIEQAATSDPGHLIGSGILTRSRERDVIDRLFESDLLTDYGIRTLSAKDPRFDPKAYQRGSIWPQDNWIIADGIKRRGYLKEYRELRERLIAAYEYYGRMPEYFGVDRYGKIMDLSKLRIKPCYPQAWSTGAIINFVTFK”: the “soluble on expression in E. coli” value is recorded as “soluble”. To “MGSDKIHHHHHHMSDGRLTALFPAFPHPASNQPVFAEASPHDDELMTQAVPQVSCQQALAIAQQEYGLSGQMSLLQGERDVNFCLTVTPDERYMLKVINAAEPADVSNFQTALLLHLARQAPELPVPRIRSTKAGQSETGVEIDGVLLRVRLVSYLAGMPQYLASPSTALMPQLGGTLAQLDNALHSFTHPAANRALLWDISRAEQVRPYLDFVSEPQQYQHLQRIFDRYDSNVAPLLTTLRRQVIHNDLNPHNVLVDGSSPTRVTGIIDFGDAVFAPLICEVATALAYQIGDGTDLLEHVVPFVAAYHQRIPLAPEEIALLPDLIATRMALTLTIAQWRASRYPDNREYLLRNVPRCWHSLQRIATYSHAQFLTRLQQVCPENAR” belongs “not soluble”; to “MGSDKIHHHHHHMMKAQFTLTPSESKRLIAKGVKALPILRKALQNHTIILAGGTTNGFLVEELLNETLAEKTRYTVGLIADGKTGESKEEQRIPPFIIAKGKALDRSLHWKDFLPQLEPGDVFIKGGNALDSTGLAAVLVSNSMAGTIGAALGPLYARGVRLVVPIGLEKLIPDVREAVEFMASAPADTALGAKTGLVPMLGATVVTEITALETLYQVTAKCIGAGGVAGSEGAVTLVIEGEAAEVESALSLIQSCKGEPPVR”, “not soluble”.

As to “SDLMTPWPIIEKRIVAAASADFVTAIYNPKSEGRYWQLYRFVEIFMQYRSADTPVGLVRQAGREEEQVTVTTLGEFDPEVVDMFTVVLVGNSQSYCYEGHFITPRGYYPEEEIEAKGI”, the “soluble on expression in E. coli” value is on record as “not soluble”. To “MNAYQKTIGRAVTLSGVGIHGGAPASARLLPADADTGILFQRSDIKDSAPVCAHVSQIGATDLCTSLGAREARIDTVEHLMAAISALGIDNLVVEIEGPEVPILDGTSARFIEAVDSVGVVTQDAKRRFIRILKTVRVEAGNSWGEFRPYDGTRFEVEIDFECPLIGRQKFAHDVDEETFRKELSTARTFGFMKDVERLWAAGLALGASLDNSLVIGDDNSIVNADGLRFKDEFVRHKTLDAVGDLALAGLPFIGCFSSYRGGHRLNSEAVKALLSDETAFEIIEALEHHHHHH” belongs “soluble”.

On to “MGSDKIHHHHHHMNTHNILIIGQGDIGLPVTNKLAQNGVNVTGLARRKRQNYALSDHAKFMQADALTLSPEQLQDFTHIAIIVTPDEYSTSGYHNSYLAINQHLALLADKLSNLQRVVFISSTGVYGQDNGEWIDEDTVPMLPEREASQVILQAEQALQQVFHDRAIIIRPSGIYGRARLMRVRKAKEPQKQPIAAGAWTNRIMDSDLVNIIAKVLTIKAPKPIYIATDYLPVTSFALTTWLSEQLDEALPVLDDKNSVMTGKRLHSNIPLSWLMYPDWQIGYQDILRHQD”, for which the “soluble on expression in E. coli” value is listed as “not soluble”. With “MIETKRQQERVILLGVELQTTEHFDMSMTELANLAKTAGVKVMASFSQKRERYDSKTFIGSGKLDEIKAIVEADEIDAVIVNNRLTARQNANLEAVLEVKVIDRMQLILDIFAMRARSHEGKLQVHLAQLKYMLPRLVGQGIMLSRQAGGIGSRGPGESQLELNRRSIRHQIADIERQLTQVEKNRQTIRDRRVGSDTFKIGLIGYTNAGKSTIMNLLTDDSHYEANELFATLDATTKQLYLENQFQATLTDTVGFIQDLPTELVAAFKSTLEESKYVDLLLHVIDASDPNHSEQEKVVLNLLKELDMLNIPRLAIYNKVDIAEQFTATAFPNIRISARSKDSKILLRRLIIDQIRDQFVPFRIKVHQDKAYKLYDLNRVALLDHYTFDQEIEDISGYISPKQQWRLDDFYELEHHHHHH”, the “soluble on expression in E. coli” value is “soluble”. “MNKFGAEKIFIEKQSGATITHRPIFQEALDFVRAQDIFIVEAIDRLGRNYDEIIDSVNYLKKKNVRLIITSLPIMAEAIGNPLLDKFIKDLIIQILAMIAEQERTESKRRQAQGIKIAKANGVYKGRPKLYSADTKDPQRRLVYKSIVQDLKNGVAISKIAKDYNITRQTIYRIKKEIHELEIN”: the “soluble on expression in E. coli” value is listed as “not soluble”. To “MVSQLACIIWTGIIAGRTATLTEGDNMKLPKWLEEKYDLLWDKFEDREFRSTEALEILGKEHLIDEKSLSAAISEMRKKGWIETRKDPDDERRRIYMLRPKSEIIQDYLTLKDDKLGRADIERILKGAADLIRTRVDYKFILVLLFMKQMSDKWMMEYQKAYEDAIKEYGLSEEEARLEARNSAYHDLDIKEEYLWDNIRKDVENLPIKFAGALKNLAELNPAFKDVVDAFDFVEFTQSQENREILRQLVELFSEKKLTNVDPDILGDAYEWILRYFAPTKAKEGEVYTPREVIRLLVEILDPKPGESVYDPASASNGMLIISHKYVKETYGEAERLFLYGQEVNRKTMALGSMNMYIHDIKDHHIAHGDTLLYPKFKESDGIMRFDVVIANPPWNQDGYGEDTLKKGDYWRERFRYGFVNKQSADWAWIQHMIASAKDDGRIGVVIDNGCLFRGGREKSIRSAVLEDDLIEAVILLPEKLFYNTGAPGAIIILNKDKDEERRGKVLFINAGEEYEKHPEVRKLNILSDGNIERILEAYREFQGDDGFSRVVDLDEIRENDYNLNVPLYAFPEEELEDIDVAGEWMRLSEIEEELAEVDERIRGYLDELGYMGVKM” belongs “soluble”; to “MFEGGHSKSFSIFPIRVVYMPVEQGEVPATILISVSKRRFKRAVKRNRVKRQIREVYRKNKQPLLDGLQNKGQRLAIAFIYLSDELVATAELEEKMKTALSRISEKLSL”, “not soluble”.

As for “NKDMEFTLRANFTYSTNKVNYYEEGDTKYEYTSATGRPNGYMKGYIALGLFKDQEEINNSPKQDFGSYLPGDIKYKDVNGDGVVNSDDQVPVSYQDYPRLMYGFGGEFRWKKLTLGVRFSGIGNTDYYKIWTWGSNNVGYIPFYDGKLGNVLTIAANPANRWIPADYDDPSIPASMRENPNAMFPRLSYGSNQNNAQASTFWKGNRKYLRLDEISLNYNCNCNLLKSIGINSIDLAVVANDLHTWDSVKLFDPELATSNGRAYPIPGRVSFQAIVHF”, the “soluble on expression in E. coli” value is “not soluble”. To “MSLDGVLISSREAIAAAWSRVAGEQGVALGPDCLRDHVHGRPGGYTLDYLFGHLPMERRRILKQRVDALEEGADCPLLPGVAAVIRQLRWLDVPLALVTSSWPARIDHVLRQHDLQAAFRTLVSRDDVVHGKPAPDGYRLAAARLGVAPSRCLVFEDSLSGVQAACAAGATCVAIGEESGLLAAGARWSVRDFRELRIVREDDRLYCQHRHPATTGSERSVGVPEGHHHHHH” belongs “not soluble”. The value for “MSLKTGRTNTIVVLVPNLINPFFMRIIGGIEQAAQERGFTVLLCDTQGESKRESDYASMVLTNRADGLIQLDHSFPFTEDDAKLAETIPMVSVCERIHSDKKYPVVALDNYAASRALAHHLVSYGHTKFAVIVGQVVSQIHKDRLYGLRSVLAEEDIEFDEDMIVGQSYSIENGIEGMRQLLEKPNRPSAVICFNDDIAIGAMHEIHRQGLRVPEDISVVGFDNVKVAAFMNPPLTTIDQPAYEMGRRGMEILSDVINGVPLTRSSEMLPFQLLERESSGEGHHHHHH” was “not soluble”; that for “MGSDKIHHHHHHMKMHVAFVHRRGFGQFAALARHLAEAGNEVTLVTETVDQRIPSVRVVRHRAEPGPQPNPHIARHLGVPDHHVRIGHRVAETFDAMGRLGQSPDIVLGHIGWGSMMFVKDVLPRVPALGYCEFFYRSEGADVGFAPDDRPDSETRKRLRLRNIAQLLSLEAMDGGISPTNWQKSLYPADARQRIAVCHEGVDTRRFRPDPAASLKLPDGRVLKAGDPVVTFVARDLEPYRGFPQALEAAAKVVRRHPDALFVFVGGDGVSYGAPPPGGGSWKDHLLASLDVPRERLIFPGVVPHSVLRQLFQISAAHLYLTYPFVLSWSVLEAMACGALVIGSDTAPVQEVIRSGRNGLLVPFFDTDALAETIVGALNRPDNFRELRGAARRTVEQRFRLDDCLARQLTLIGNLTGRNAAQAKETQFV” was “not soluble”; that for “MNKKELIDILLYDVALEHSAIIQYLYNVFLIGDPEITNEIESIARQEMRHLKWFAQKVVELGGKVTLNRIEEAIKVGQSWEEMLKNDVDAEEEAIKIYSQQLEIVKDDSVKKLLDRVINDEMRHRDEFSEMLEELKNKKIEEAKQEAGIDSEIFNILNKLLQKEYRLILDYLYHFFHSKTWQEKDTSLDIAIESMFHMGELGEKIGELGGYPDLSLPKAKHFKGFTPEEVIEDIKEEETASRMYEENAKKVTREDLVKLFKWFEKQEDYHAQRLKELFRKMNRFTIGGLGEES” was “not soluble”. On to “MGSDKIHHHHHHHILNKKSYKNGYDNISDTDSVYFNGVEKYARFADFPVQINIMQKFDYTLDQLMLRDDYEISLEEWSSILFQIIFALAVAQKEYSFAHNDIHSDNVMFSNTKEPYIYYHINDTIYKVPTFNRVAKLIDFARGTFKVDGKWYISDVFENGGEADGQYEYDLNDFKPNHSFDLARLASSIIDNVNVPEIEDILRTWIKTTSGYDVMEDKDTFDIYIKIAKECFNAVPTKVIKHKLFQQFKITKKQKPNNTYVYYY”, for which the “soluble on expression in E. coli” value was “not soluble”. To “GTIVITGTITDQTCTIEDPSPGYIKVVHLPTISKSALKNAGDVAGRTRFDIKLKDCPTTVNTLKLYFEPGPTTDYGTKDLKAYKQAWYVDAATLLKSPPSVTEAKGVQIRLMNLNGKQIPMGETEPNQHAAAFSGTMQAGQAKKSFTLHYLAGYVKKASGEVEATMLTTYVGFSVVYP” belongs “not soluble”; to “GPLGSMATVPVYCVCRLPYDVTRFMIECDACKDWFHGSCVGVEEEEAPDIDIYHCPNCEKTHGKSTLKKKRTWHK”, “soluble”. The value for “MGHHHHHHSHMPPAAAGPLAGQPRKSSSSRRNAWGNLSYADLITKAIESSAEKRLTLSQIYEWMVKSVPYFKDKGDSNSSAGWKNSIRHNLSLHSKFIRVQNEGTGKSSWWMLNPEGGKSGKSPRRRAASMDNNSKFAKSRSRAAKKKA” was “soluble”.

Regarding “MRETSSREDTNNIGKAPEMSGGTIMDTMTSLPHQNDQNVIRHLTNLVKSPASGDDDIKKKEDSIMELGNILAQNKQTEELRNMIEQTRPFLVSLGKAKAAKLVRDLVDLCLKIDDQDGDIKVGLVKECIQWATEQNRTFLRQTLTARLVRLYNDLQRYTQALPLAADLIRELKKVDDKDVLVEVELEESKAYYNLSNIGRARASLTGARTTANAIYVNPRMQAALDLQSGILHAADEKDFKTAFSYFYEAFEGYDSVDEKVSALTALKYMLLCKVMLDLPDEVNSLLSAKLALKYNGSDLDAMKAIAAAAQKRSLKDFQVAFGSFPQELQMDPVVRKHFHSLSERMLEKDLCRIIEPYSFVQIEHVAQQIGIDRSKVEKKLSQMILDQKLSGSLDQGEGMLIVFEIAVPDEAYQTALDTIHAMGEVVDALYSNASKIN”, the “soluble on expression in E. coli” value is “not soluble”.
